Experimental findings from paper PMC4038756 (Theranostics, 2014) are described below.

Each structure is given as a SMILES string.

As usually defined, the tissue uptake is the share of the injected amount in each gram of the tissue. The IC50 is the concentration that inhibits the measured activity by half. Low values mean greater potency, high ones weaker potency.

In series [1] the target is purified αvβ6 (Homo sapiens, UniProt P06756+P18564). The experiment in a line: Binding assay on purified integrins. Conditions: purified αvβ6, up to 1 µM.
Sequence of purified αvβ6 (P06756 31-992 limits assumed): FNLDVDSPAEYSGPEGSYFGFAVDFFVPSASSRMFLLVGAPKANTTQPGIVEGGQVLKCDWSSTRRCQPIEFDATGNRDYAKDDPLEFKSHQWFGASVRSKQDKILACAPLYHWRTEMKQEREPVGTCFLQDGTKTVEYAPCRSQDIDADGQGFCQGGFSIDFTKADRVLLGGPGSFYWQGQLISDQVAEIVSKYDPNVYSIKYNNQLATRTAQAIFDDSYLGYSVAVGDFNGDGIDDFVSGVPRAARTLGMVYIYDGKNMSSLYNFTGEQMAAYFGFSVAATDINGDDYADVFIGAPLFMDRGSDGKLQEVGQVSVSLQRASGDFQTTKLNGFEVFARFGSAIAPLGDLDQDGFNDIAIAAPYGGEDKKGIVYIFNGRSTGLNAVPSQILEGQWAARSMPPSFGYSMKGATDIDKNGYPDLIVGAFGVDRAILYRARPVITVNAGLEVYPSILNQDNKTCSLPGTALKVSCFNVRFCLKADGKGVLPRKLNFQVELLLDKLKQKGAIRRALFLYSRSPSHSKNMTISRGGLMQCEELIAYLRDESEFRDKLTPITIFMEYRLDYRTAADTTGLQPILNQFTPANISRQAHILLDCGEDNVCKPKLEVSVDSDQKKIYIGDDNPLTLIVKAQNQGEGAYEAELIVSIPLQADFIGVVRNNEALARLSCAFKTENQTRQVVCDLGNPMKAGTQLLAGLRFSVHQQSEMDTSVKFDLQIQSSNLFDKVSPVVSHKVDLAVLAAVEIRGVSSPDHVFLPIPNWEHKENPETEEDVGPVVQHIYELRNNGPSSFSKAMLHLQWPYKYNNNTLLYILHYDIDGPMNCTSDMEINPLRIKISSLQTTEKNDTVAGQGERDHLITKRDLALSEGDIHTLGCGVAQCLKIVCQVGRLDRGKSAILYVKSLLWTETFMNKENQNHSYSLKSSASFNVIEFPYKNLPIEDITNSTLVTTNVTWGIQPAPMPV
Sequence of purified αvβ6 (P18564 22-707 limits assumed): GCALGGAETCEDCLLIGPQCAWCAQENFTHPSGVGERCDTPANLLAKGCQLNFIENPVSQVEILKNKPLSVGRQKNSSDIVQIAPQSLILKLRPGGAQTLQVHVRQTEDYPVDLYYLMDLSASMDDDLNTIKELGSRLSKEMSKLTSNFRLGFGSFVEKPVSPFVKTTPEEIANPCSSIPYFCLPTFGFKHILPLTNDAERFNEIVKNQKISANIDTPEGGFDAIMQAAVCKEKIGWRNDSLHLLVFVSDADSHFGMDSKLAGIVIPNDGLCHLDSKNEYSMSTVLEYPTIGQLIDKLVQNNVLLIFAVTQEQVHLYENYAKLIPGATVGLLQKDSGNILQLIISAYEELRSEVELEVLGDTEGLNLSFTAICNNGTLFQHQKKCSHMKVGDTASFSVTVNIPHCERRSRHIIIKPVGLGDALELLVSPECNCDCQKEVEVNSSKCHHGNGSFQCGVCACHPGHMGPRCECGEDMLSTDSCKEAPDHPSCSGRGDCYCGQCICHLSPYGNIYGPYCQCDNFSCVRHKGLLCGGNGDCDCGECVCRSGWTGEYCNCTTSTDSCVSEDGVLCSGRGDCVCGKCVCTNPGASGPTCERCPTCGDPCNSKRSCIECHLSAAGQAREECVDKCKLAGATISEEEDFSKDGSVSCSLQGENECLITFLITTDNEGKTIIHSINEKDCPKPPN
The nature of series [2]: Small animal PET/CT imaging, H460 tumor bearing mice. Format: in vivo, NOD/SCID mice. The following applies: NOD/SCID, mouse, iv, total radioactivity.
Series [3] relates to H460 (αvβ6^-) xenografts. Described as above. The following applies: H460 tumor bearing mice, quantitative PET, mean ± s.d., n = 3. Format: in vivo, NOD/SCID mice.
The test system of series [4] is H2009 (αvβ6^+) xenografts. The experiment in a line: Small animal PET/CT imaging, H2009 tumor bearing mice. Format: in vivo, NOD/SCID mice. The following applies: for Tumor uptake: quantitative PET, mean ± s.d.; for Tumor uptake / Tumor/Lung: n = 3; for Tumor/Lung: ratio of PET uptakes; for tumor uptake increase as compared to 64Cu-M10: H2009 tumor, all three time points (1 h, 4 h, 24 h p.i.).

Assay in series [5]: as above
Format: in vivo, NOD/SCID mice. The following applies: NOD/SCID, mouse, iv, total radioactivity.

Series [6] deals with αvβ6 integrin-positive H2009 human NSCLC cells (Homo sapiens, UniProt P06756+P18564). The experiment in a line: Peptide competition assay: inhibition of H2009.1 peptide phage binding to cells.
Sequence of αvβ6 integrin-positive H2009 human NSCLC cells (P18564 22-788): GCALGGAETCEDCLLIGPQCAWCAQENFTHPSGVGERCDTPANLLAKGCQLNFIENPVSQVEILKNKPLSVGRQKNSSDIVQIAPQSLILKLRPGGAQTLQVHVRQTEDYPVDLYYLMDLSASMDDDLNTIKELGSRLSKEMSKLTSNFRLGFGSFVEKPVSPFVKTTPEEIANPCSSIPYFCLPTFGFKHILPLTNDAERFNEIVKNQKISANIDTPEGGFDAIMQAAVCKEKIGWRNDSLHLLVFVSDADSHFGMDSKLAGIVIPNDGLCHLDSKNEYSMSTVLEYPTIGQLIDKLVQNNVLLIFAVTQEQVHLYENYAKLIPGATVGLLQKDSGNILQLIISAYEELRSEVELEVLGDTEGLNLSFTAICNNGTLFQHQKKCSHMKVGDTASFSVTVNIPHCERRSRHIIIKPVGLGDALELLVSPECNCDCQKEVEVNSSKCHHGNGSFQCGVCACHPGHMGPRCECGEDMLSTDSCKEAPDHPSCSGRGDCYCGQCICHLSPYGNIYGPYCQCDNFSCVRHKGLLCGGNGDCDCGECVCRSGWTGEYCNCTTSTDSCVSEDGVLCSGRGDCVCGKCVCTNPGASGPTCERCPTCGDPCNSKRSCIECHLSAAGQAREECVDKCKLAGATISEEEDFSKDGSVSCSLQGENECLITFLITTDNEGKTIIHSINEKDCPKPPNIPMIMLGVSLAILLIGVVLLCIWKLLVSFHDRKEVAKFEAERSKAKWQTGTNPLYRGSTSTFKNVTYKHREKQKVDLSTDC
Sequence of αvβ6 integrin-positive H2009 human NSCLC cells (P06756 891-1048): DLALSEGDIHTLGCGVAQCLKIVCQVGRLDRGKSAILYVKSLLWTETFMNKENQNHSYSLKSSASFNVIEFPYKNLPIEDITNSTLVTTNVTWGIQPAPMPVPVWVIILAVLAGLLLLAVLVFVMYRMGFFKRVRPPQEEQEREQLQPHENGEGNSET
Sequence of αvβ6 integrin-positive H2009 human NSCLC cells (P06756 31-889): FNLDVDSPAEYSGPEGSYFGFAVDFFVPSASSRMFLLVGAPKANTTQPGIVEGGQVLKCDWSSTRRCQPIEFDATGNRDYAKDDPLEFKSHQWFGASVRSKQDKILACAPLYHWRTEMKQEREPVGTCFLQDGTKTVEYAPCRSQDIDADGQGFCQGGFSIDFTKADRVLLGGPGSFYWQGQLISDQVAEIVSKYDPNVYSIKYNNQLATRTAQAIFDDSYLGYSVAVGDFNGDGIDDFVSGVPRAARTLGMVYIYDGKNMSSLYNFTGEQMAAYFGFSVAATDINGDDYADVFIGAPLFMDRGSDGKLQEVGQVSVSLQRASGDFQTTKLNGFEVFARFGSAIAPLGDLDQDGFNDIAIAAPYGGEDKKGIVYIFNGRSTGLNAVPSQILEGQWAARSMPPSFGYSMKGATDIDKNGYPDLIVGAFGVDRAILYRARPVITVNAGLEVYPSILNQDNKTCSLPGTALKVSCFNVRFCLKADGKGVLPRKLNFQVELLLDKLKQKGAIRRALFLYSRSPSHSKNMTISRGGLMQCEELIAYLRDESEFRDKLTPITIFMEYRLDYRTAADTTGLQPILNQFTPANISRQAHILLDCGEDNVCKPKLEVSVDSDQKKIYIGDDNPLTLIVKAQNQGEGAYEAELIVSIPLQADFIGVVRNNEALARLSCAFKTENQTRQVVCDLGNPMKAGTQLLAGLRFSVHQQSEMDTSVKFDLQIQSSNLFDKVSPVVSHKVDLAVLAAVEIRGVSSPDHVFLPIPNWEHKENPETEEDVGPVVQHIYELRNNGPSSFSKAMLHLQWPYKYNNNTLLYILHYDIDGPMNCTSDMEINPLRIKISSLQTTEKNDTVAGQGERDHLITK
Where [7] appears, read: H2009 tumor bearing mice, 1 h p.i.
Setting [8] is: H2009 tumor bearing mice, 4 h p.i.
The mark [9] stands for this setting: H2009 tumor bearing mice, 24 h p.i.

For `N=C(N)NCCC[C@@H]1NC(=O)[C@H](CCCCN)NC(=O)[C@@H](Cc2ccc(O)cc2)NC(=O)[C@H](CC(=O)O)NC(=O)CNC1=O` [cRGDyK], the “binding to αvβ6” value in series [1] is on record as “no detectable binding”.
In the case of `CC(C)C[C@H](NC(=O)[C@H](CCC(N)=O)NC(=O)[C@H](CCCNC(=N)N)NC(=O)[C@H](CC(C)C)NC(=O)[C@@H](NC(=O)[C@H](C)NC(=O)[C@H](CC(C)C)NC(=O)[C@H](CC(=O)O)NC(=O)CNC(=O)[C@@H](N)CCCNC(=N)N)[C@@H](C)O)C(=O)NCCOCCOCCOCCOCCOCCOCCOCCOCCOCCOCCOCCOCCC(=O)N[C@@H](CSC1CC(=O)N(CCC(=O)NCCCC[C@H](NC(=O)CCN2C(=O)CC(SC[C@H](NC(=O)CCOCCOCCOCCOCCOCCOCCOCCOCCOCCOCCOCCOCCNC(=O)[C@H](CC(C)C)NC(=O)[C@H](CCC(N)=O)NC(=O)[C@H](CCCNC(=N)N)NC(=O)[C@H](CC(C)C)NC(=O)[C@@H](NC(=O)[C@H](C)NC(=O)[C@H](CC(C)C)NC(=O)[C@H](CC(=O)O)NC(=O)CNC(=O)[C@@H](N)CCCNC(=N)N)[C@@H](C)O)C(N)=O)C2=O)C(=O)NCCC(=O)N[C@@H](CSC2CC(=O)N(CCNC(=O)CCC(C(=O)O)N3CCCN4CCN(CCCN(CC(=O)O)CC4)CC3)C2=O)C(N)=O)C1=O)C(N)=O` (stereo partly shown) [^64Cu-D10, metal not drawn], the tissue uptake at 1 h in series [2] (heart) was 1.41 ± 0.43 %ID/g; in series [2] (kidney) it was 43.3 ± 5.4 %ID/g; in series [2] (liver) it was 2.63 ± 0.92 %ID/g; in series [2] (lung), 1.33 ± 0.3 %ID/g; in series [2] (muscle), 0.75 ± 0.24 %ID/g; in series [5] (heart) it was 1.26 ± 0.37 %ID/g. The tissue uptake at 1 h in series [5] (kidney) worked out at 43.5 ± 1.8 %ID/g; in series [5] (liver), 2 ± 0.1 %ID/g; in series [5] (lung) it was 1.86 ± 0.2 %ID/g; in series [5] (muscle) it was 0.8 ± 0.11 %ID/g. For the same compound, the tissue uptake at 4 h in series [2] (heart) stood at 0.77 ± 0.09 %ID/g; in series [2] (kidney), 50.1 ± 3.87 %ID/g; in series [2] (liver), 2.3 ± 0.26 %ID/g; in series [2] (lung), 0.77 ± 0.07 %ID/g; in series [2] (muscle), 0.31 ± 0.06 %ID/g; in series [5] (heart) it was 0.79 ± 0.27 %ID/g. The tissue uptake at 4 h in series [5] (kidney) turned out to be 39.3 ± 5.66 %ID/g; in series [5] (liver), 1.56 ± 0.11 %ID/g; in series [5] (lung), 0.99 ± 0.18 %ID/g; in series [5] (muscle), 0.4 ± 0.03 %ID/g. Moreover, the tissue uptake at 24 h in series [2] (heart) amounted to 0.47 ± 0.09 %ID/g; in series [2] (kidney), 19.8 ± 2.38 %ID/g; in series [2] (liver), 1.83 ± 0.15 %ID/g; in series [2] (lung), 0.45 ± 0.17 %ID/g; in series [2] (muscle), 0.33 ± 0.08 %ID/g; in series [5] (heart), 0.42 ± 0.1 %ID/g. Also, the tissue uptake at 24 h is 21.4 ± 0.57 %ID/g in series [5] (kidney), 1.01 ± 0.14 %ID/g in series [5] (liver), 0.62 ± 0.23 %ID/g in series [5] (lung) and 0.27 ± 0.13 %ID/g in series [5] (muscle). Further, the Tumor uptake is recorded as 0.86 ± 0.21 %ID/g in series [3] (1 h p.i.); 0.52 ± 0.05 %ID/g in series [3] (4 h p.i.); 0.39 ± 0.04 %ID/g in series [3] (24 h p.i.); 1.53 ± 0.15 %ID/g in series [4] (setting [7]); 1.2 ± 0.26 %ID/g in series [4] (setting [8]); 0.89 ± 0.26 %ID/g in series [4] (setting [9]). In addition, the “increase of kidney uptake as compared to 64Cu-M10” value in series [4] (H2009 tumor bearing mice, 1 h, 4 h, 24 h p.i.) is recorded as approximately 6 fold. The results for the Tumor/Lung in series [4] (setting [7]), in series [4] (setting [8]) and in series [4] (setting [9]) were 0.8 ± 0.25, 1.2 ± 0.31 and 1.4 ± 0.34, respectively. In addition, the “tumor uptake increase as compared to 64Cu-M10” value in series [4] is approximately 3 fold.
For the compound `CC(C)C[C@H](NC(=O)[C@H](CCC(N)=O)NC(=O)[C@H](CCCNC(=N)N)NC(=O)[C@H](CC(C)C)NC(=O)[C@@H](NC(=O)[C@H](C)NC(=O)[C@H](CC(C)C)NC(=O)[C@H](CC(=O)O)NC(=O)CNC(=O)[C@@H](N)CCCNC(=N)N)[C@@H](C)O)C(=O)NCCOCCOCCOCCOCCOCCOCCOCCOCCOCCOCCOCCOCCC(=O)N[C@@H](CSC1CC(=O)N(CCNC(=O)CCC(C(=O)O)N2CCCN3CCN(CCCN(CC(=O)O)CC3)CC2)C1=O)C(N)=O` (stereo partly shown) [H2-M10], the IC50 in series [6] worked out at 4.5 nM.
On to `CC(=O)N[C@@H](CCCNC(=N)N)C(=O)NCC(=O)N[C@@H](CC(=O)O)C(=O)N[C@@H](CC(C)C)C(=O)N[C@@H](C)C(=O)N[C@H](C(=O)N[C@@H](CC(C)C)C(=O)N[C@@H](CCCNC(=N)N)C(=O)N[C@@H](CCC(N)=O)C(=O)N[C@@H](CC(C)C)C(=O)NCCOCCOCCOCCOCCOCCOCCOCCOCCOCCOCCOCCOCCC(=O)N[C@@H](CSC1CC(=O)N(CCC(=O)NCCCC[C@H](NC(=O)CCN2C(=O)CC(SC[C@H](NC(=O)CCOCCOCCOCCOCCOCCOCCOCCOCCOCCOCCOCCOCCNC(=O)[C@H](CC(C)C)NC(=O)[C@H](CCC(N)=O)NC(=O)[C@H](CCCNC(=N)N)NC(=O)[C@H](CC(C)C)NC(=O)[C@@H](NC(=O)[C@H](C)NC(=O)[C@H](CC(C)C)NC(=O)[C@H](CC(=O)O)NC(=O)CNC(=O)[C@H](CCCNC(=N)N)NC(C)=O)[C@@H](C)O)C(N)=O)C2=O)C(=O)NCCC(=O)N[C@@H](CSC2CC(=O)N(CCNC(=O)CCC(C(=O)O)N3CCCN4CCN(CCCN(CC(=O)O)CC4)CC3)C2=O)C(N)=O)C1=O)C(N)=O)[C@@H](C)O` (stereo partly shown) [^64Cu-AcD10, metal not drawn], for which the tissue uptake at 1 h in series [2] (heart) came to 0.82 ± 0.05 %ID/g; in series [2] (kidney) it was 19.5 ± 0.36 %ID/g; in series [2] (liver), 1.13 ± 0.15 %ID/g; in series [2] (lung), 1.02 ± 0.06 %ID/g; in series [2] (muscle), 0.61 ± 0.12 %ID/g; in series [5] (heart) it was 0.78 ± 0.05 %ID/g. The tissue uptake at 1 h came out at 18.8 ± 2.2 %ID/g in series [5] (kidney), 1.08 ± 0.11 %ID/g in series [5] (liver), 1.33 ± 0.23 %ID/g in series [5] (lung) and 0.83 ± 0.14 %ID/g in series [5] (muscle). The tissue uptake at 4 h in series [2] (heart) was 0.5 ± 0.04 %ID/g; in series [2] (kidney) it was 18.4 ± 0.92 %ID/g; in series [2] (liver) it was 0.95 ± 0.06 %ID/g; in series [2] (lung), 0.65 ± 0.02 %ID/g; in series [2] (muscle), 0.35 ± 0.05 %ID/g; in series [5] (kidney) it was 19.1 ± 3.3 %ID/g. The tissue uptake at 4 h turned out to be 0.72 ± 0.09 %ID/g in series [5] (liver), 0.65 ± 0.03 %ID/g in series [5] (lung) and 0.42 ± 0.05 %ID/g in series [5] (muscle). In addition, the tissue uptake at 24 h stood at 0.26 %ID/g in series [2] (heart); 3.43 ± 1.8 %ID/g in series [2] (kidney); 0.71 ± 0.04 %ID/g in series [2] (liver); 0.24 ± 0.1 %ID/g in series [2] (lung); 0.19 ± 0.13 %ID/g in series [2] (muscle); 0.21 ± 0.01 %ID/g in series [5] (heart). Moreover, the tissue uptake at 24 h was determined as 5.4 ± 0.87 %ID/g in series [5] (kidney), 0.55 ± 0.1 %ID/g in series [5] (liver), 0.34 ± 0.08 %ID/g in series [5] (lung) and 0.32 ± 0.1 %ID/g in series [5] (muscle). In addition, the Tumor uptake is listed as 0.73 ± 0.13 %ID/g in series [3] (1 h p.i.); 0.45 ± 0.11 %ID/g in series [3] (4 h p.i.); 0.35 ± 0.05 %ID/g in series [3] (24 h p.i.); 1.46 ± 0.15 %ID/g in series [4] (setting [7]); 0.98 ± 0.01 %ID/g in series [4] (setting [8]); 0.68 ± 0.02 %ID/g in series [4] (setting [9]). In addition, the Tumor/Lung is 1.1 ± 0.27 in series [4] (setting [7]), 1.51 ± 0.03 in series [4] (setting [8]) and 2.0 ± 0.08 in series [4] (setting [9]). Also, in series [4], the “tumor uptake increase as compared to 64Cu-M10” value is approximately 3 fold.
